Measurements: patent US20150368299A1

How the values were obtained:
Aβ(1-42) fibril (human) = Aβ(1-42) fibril (human) (UniProt P05067); test: dot blot with densitometry; Aβ form dotted on nitrocellulose in serial dilution, antibody 0.2 µg/ml; higher value = weaker recognition
[1] = target: Aβ(1-42) globulomer (human) (UniProt P05067); test: as above
[2] = target: Aβ(1-40) monomer in 0.1% NaOH (human); test: as above
[3] = target: Aβ(1-42) monomer in 0.1% NaOH (human); test: as above
[4] = target: Aβ(1-40) monomer in 0.1% NH4OH (human); test: as above
[5] = target: Aβ(1-42) monomer in 0.1% NH4OH (human); test: as above
[6] = target: human platelet factor 4 (HPF4) in human plasma spiked with human PF4 (human) (UniProt P02776); test: aligned sandwich ELISA with HPF4-spiked human plasma; AUC of the reference anti-HPF4 antibody over AUC of this antibody
[7] = target: human platelet factor 4 (HPF4) in human plasma spiked with human PF4 (human) (UniProt P02776); test: sandwich ELISA with HPF4-spiked human plasma; AUC of the reference anti-HPF4 antibody over AUC of this antibody
[8] = target: platelet factor 4 (PF-4) in Cynomolgus monkey plasma (cynomolgus monkey (Macaca fascicularis)); test: aligned sandwich ELISA with cynomolgus plasma; AUC of the reference anti-HPF4 antibody over AUC of this antibody
[9] = target: platelet factor 4 (PF-4) in Cynomolgus monkey plasma (cynomolgus monkey (Macaca fascicularis)); test: sandwich ELISA with cynomolgus plasma; AUC of the reference anti-HPF4 antibody over AUC of this antibody

human platelet factor 4 (HPF4) in human plasma spiked with human PF4 (human), sequence (P02776 32-101): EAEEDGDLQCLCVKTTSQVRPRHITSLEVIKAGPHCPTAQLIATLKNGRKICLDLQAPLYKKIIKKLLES
platelet factor 4 (PF-4) in Cynomolgus monkey plasma (cynomolgus monkey (Macaca fascicularis)), sequence (chain, as listed by the source): as the sequence (P02776 32-101) above, with I64V counted along it
Aβ(1-40) monomer in 0.1% NH4OH (human), sequence (peptide, as listed by the source): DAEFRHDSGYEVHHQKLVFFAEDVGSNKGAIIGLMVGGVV
Aβ(1-42) globulomer (human), sequence (P05067 672-713 limits assumed): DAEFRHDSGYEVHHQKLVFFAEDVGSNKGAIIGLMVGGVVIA
Aβ(1-42) fibril (human), sequence (P05067 672-713 limits assumed): as above
Aβ(1-42) monomer in 0.1% NaOH (human), sequence (peptide, as listed by the source): as the sequence (P05067 672-713 limits assumed) above
Aβ(1-42) monomer in 0.1% NH4OH (human), sequence (peptide, as listed by the source): as the sequence (P05067 672-713 limits assumed) above

Substance	dot blot relation of recognition of Aβ(20-42) globulomer to recognition of this Aβ form (Aβ(1-42) fibril (human))	dot blot relation of recognition of Aβ(20-42) globulomer to recognition of this Aβ form [1]	dot blot relation of recognition of Aβ(20-42) globulomer to recognition of this Aβ form [2]	dot blot relation of recognition of Aβ(20-42) globulomer to recognition of this Aβ form [3]	dot blot relation of recognition of Aβ(20-42) globulomer to recognition of this Aβ form [4]	dot blot relation of recognition of Aβ(20-42) globulomer to recognition of this Aβ form [5]	Ratio HPF4/aAβ antibody (PF4 discrimination factor) [6]	Ratio HPF4/aAβ antibody (PF4 discrimination factor) [7]	Ratio HPF4/aAβ antibody (PF4 discrimination factor) [8]	Ratio HPF4/aAβ antibody (PF4 discrimination factor) [9]
Anti-Aβ monoclonal antibody clone 6E10 (Covance cat. no. SIG-39320)	29	0.09	20	10	3	10	–	–	–	–
Anti-HPF4 monoclonal antibody (Abcam Cat. No. ab49735)	–	–	–	–	–	–	1	1	1	1
Monoclonal antibody clone mIgG2a	–	–	–	–	–	–	118	331	325	517
